Laboratory results reported in paper PMC5503505 (Nature structural & molecular biology, 2017).

B1: Orc2 (natural protein)
chain: MLNGEDFVEHNDILSSPAKSRNVTPKRVDPHGERQLRRIHSSKKNLLERISLVGNERKNTSPDPALKPKTPSKAPRKRGRPRKIQEELTDRIKKDEKDTISSKKKRKLDKDTSGNVNEESKTSNNKQVMEKTGIKEKREREKIQVATTTYEDNVTPQTDDNFVSNSPEPPEPATPSKKSLTTNHDFTSPLKQIIMNNLKEYKDSTSPGKLTLSRNFTPTPVPKNKKLYQTSETKSASSFLDTFEGYFDQRKIVRTNAKSRHTMSMAPDVTREEFSLVSNFFNENFQKRPRQKLFEIQKKMFPQYWFELTQGFSLLFYGVGSKRNFLEEFAIDYLSPKIAYSQLAYENELQQNKPVNSIPCLILNGYNPSCNYRDVFKEITDLLVPAELTRSETKYWGNHVILQIQKMIDFYKNQPLDIKLILVVHNLDGPSIRKNTFQTMLSFLSVIRQIAIVASTDHIYAPLLWDNMKAQNYNFVFHDISNFEPSTVESTFQDVMKMGKSDTSSGAEGAKYVLQSLTVNSKKMYKLLIETQMQNMGNLSANTGPKRGTQRTGVELKLFNHLCAADFIASNEIALRSMLREFIEHKMANITKNNSGMEIIWVPYTYAELEKLLKTVLNTL
B3: Orc3 (natural protein)
chain: MSDLNQSKKMNVSEFADAQRSHYTVYPSLPQSNKNDKHIPFVKLLSGKESEVNVEKRWELYHQLHSHFHDQVDHIIDNIEADLKAEISDLLYSETTQKRRCFNTIFLLGSDSTTKIELKDESSRYNVLIELTPKESPNVRMMLRRSMYKLYSAADAEEHPTIKYEDINDEDGDFTEQNNDVSYDLSLVENFKRLFGKDLAMVFNFKDVDSINFNTLDNFIILLKSAFKYDHVKISLIFNINTNLSNIEKNLRQSTIRLLKRNYHKLDVSSNKGFKYGNQIFQSFLDTVDGKLNLSDRFVEFILSKMANNTNHNLQLLTKMLDYSLMSYFFQNAFSVFIDPVNVDFLNDDYLKILSRCPTFMFFVEGLIKQHAPADEILSLLTNKNRGLEEFFVEFLVRENPINGHAKFVARFLEEELNITNFNLIELYHNLLIGKLDSYLDRWSACKEYKDRLHFEPIDTIFQELFTLDNRSGLLTQSIFPSYKSNIEDNLLSWEQVLPSLDKENYDTLSGDLDKIMAPVLGQLFKLYREANMTINIYDFYIAFRETLPKEEILNFIRKDPSNTKLLELAETPDAFDKVALILFMQAIFAFENMGLIKFQSTKSYDLVEKCVWRGI

Key:
Mcm5 = biological target: T1, Mcm5 (S. cerevisiae, UniProt P29496 1-775); test: cross-linking
T1 sequence: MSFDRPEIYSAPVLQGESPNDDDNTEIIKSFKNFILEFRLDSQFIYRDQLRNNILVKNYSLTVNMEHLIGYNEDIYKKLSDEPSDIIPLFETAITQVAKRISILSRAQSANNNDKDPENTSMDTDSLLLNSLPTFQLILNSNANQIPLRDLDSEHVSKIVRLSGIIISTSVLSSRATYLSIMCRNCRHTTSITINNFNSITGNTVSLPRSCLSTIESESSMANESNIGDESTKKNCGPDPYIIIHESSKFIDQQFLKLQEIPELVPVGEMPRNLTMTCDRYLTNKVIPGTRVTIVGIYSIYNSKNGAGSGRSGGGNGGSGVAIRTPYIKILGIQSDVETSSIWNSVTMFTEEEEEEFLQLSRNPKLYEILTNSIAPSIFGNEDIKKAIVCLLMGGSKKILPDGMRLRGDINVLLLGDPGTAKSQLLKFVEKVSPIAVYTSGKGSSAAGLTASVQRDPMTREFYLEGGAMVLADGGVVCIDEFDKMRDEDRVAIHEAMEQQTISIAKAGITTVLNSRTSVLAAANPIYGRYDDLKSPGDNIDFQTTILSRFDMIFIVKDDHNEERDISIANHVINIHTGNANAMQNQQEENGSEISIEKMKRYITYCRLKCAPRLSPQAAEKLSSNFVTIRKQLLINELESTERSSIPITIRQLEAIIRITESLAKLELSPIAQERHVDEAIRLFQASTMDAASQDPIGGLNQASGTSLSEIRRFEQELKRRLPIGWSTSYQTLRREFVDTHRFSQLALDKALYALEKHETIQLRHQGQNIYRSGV

Mcm3 = Mcm3 (S. cerevisiae, UniProt P24279 1-971); test: cryo-EM structure
Chain of Mcm3 (P24279 whole entry): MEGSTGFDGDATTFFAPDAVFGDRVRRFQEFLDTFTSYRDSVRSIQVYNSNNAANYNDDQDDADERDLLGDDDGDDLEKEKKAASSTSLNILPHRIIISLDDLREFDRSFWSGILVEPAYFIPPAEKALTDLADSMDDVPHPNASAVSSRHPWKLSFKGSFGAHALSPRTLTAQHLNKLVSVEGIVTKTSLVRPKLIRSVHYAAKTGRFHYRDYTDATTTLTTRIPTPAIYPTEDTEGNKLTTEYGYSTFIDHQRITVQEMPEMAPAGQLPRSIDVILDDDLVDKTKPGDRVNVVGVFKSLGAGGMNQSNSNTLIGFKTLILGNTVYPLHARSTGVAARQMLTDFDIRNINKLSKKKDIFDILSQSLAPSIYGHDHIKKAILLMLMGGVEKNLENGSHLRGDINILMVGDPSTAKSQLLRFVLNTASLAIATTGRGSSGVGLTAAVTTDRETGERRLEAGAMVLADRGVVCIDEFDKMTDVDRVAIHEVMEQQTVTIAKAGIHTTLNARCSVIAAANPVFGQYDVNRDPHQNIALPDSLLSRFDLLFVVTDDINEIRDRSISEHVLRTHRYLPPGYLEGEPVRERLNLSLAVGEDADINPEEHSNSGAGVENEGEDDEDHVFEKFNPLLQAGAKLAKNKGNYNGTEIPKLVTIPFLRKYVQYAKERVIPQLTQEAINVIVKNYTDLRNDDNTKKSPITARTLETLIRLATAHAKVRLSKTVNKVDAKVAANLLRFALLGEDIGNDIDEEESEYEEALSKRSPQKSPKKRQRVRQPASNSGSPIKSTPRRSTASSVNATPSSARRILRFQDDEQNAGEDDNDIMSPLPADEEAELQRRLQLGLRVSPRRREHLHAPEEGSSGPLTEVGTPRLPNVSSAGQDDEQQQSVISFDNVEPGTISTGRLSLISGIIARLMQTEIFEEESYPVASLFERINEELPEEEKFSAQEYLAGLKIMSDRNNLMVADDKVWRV

Mcm2 = biological target: T2, Mcm2 (S. cerevisiae, UniProt P29469 1-868); test: cryo-EM structure
T2 sequence: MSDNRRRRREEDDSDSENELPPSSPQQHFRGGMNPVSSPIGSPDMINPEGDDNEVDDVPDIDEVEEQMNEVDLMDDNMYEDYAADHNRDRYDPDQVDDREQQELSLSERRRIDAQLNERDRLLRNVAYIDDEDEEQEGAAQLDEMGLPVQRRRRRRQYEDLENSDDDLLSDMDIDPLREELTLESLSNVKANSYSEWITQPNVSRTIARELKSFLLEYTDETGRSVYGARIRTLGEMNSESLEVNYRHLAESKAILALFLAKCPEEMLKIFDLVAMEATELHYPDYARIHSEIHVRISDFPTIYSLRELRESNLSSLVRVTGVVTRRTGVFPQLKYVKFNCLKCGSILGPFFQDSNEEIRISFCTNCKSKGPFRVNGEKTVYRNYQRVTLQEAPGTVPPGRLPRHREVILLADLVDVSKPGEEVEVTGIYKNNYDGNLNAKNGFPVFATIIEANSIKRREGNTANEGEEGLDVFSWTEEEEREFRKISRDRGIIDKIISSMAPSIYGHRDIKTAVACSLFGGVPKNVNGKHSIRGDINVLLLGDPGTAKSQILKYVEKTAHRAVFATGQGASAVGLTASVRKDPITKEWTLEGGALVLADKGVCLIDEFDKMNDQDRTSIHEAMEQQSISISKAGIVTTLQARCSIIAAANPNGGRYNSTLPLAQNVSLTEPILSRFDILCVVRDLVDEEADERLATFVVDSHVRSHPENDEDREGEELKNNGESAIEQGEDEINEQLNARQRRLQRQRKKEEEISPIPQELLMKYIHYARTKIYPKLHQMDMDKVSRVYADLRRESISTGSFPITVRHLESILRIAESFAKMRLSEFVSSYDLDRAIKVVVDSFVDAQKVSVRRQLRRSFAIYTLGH

Orc4 = biological target: T3, Orc4 (S. cerevisiae, UniProt P54791 1-529); test: cryo-EM structure
T3 sequence: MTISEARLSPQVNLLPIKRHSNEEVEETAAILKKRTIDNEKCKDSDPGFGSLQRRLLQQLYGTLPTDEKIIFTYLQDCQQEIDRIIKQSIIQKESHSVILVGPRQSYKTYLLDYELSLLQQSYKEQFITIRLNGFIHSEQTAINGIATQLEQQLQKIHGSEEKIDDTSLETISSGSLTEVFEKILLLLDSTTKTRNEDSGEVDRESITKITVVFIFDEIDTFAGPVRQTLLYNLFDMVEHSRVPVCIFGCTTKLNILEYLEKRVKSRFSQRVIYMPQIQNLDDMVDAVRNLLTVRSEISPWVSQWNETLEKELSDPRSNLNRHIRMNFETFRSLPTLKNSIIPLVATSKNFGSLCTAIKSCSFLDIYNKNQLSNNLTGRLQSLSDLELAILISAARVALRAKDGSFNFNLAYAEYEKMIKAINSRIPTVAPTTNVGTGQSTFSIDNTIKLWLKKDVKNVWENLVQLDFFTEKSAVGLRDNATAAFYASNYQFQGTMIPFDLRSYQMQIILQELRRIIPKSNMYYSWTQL

Mcm6 = Mcm6 (S. cerevisiae, UniProt P53091 1-1017); test: cryo-EM structure
Chain of Mcm6 (P53091 whole entry): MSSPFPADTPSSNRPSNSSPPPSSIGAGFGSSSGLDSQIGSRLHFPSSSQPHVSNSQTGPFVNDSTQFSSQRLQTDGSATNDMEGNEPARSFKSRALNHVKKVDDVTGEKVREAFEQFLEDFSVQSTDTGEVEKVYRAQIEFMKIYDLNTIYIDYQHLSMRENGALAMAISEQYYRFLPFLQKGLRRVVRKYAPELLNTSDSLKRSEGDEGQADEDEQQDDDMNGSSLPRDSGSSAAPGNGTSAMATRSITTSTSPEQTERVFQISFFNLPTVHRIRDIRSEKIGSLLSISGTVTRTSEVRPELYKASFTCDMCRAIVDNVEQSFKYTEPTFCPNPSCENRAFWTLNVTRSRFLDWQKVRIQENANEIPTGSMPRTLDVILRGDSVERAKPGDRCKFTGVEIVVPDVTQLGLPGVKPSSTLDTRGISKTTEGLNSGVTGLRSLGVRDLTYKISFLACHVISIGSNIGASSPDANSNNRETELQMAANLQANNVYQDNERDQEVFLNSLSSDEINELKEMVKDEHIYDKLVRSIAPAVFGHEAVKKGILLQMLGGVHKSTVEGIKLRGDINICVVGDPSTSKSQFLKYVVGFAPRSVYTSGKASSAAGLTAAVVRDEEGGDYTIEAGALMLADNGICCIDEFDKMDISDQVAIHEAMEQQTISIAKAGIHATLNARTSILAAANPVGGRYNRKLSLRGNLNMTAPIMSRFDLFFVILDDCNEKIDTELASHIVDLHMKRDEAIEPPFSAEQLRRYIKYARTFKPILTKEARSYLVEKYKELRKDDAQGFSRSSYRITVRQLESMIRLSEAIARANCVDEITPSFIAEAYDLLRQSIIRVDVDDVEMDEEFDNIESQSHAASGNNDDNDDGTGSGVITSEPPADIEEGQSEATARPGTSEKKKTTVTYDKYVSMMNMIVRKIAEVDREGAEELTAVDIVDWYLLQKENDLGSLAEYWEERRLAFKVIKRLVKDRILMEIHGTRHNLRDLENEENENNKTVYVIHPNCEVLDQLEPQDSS

Orc3 = biological target: B3; test: cryo-EM structure
Orc2 = biological target: B1; test: cryo-EM structure

B1
binding result (Mcm5): binds | binding result (Mcm3): binds

B2: Orc5 (natural protein)
chain: MNVTTPEVAFREYQTNCLASYISADPDITPSNLILQGYSGTGKTYTLKKYFNANPNLHAVWLEPVELVSWKPLLQAIARTVQYKLKTLYPNIPTTDYDPLQVEEPFLLVKTLHNIFVQYESLQEKTCLFLILDGFDSLQDLDAALFNKYIKLNELLPKDSKINIKFIYTMLETSFLQRYSTHCIPTVMFPRYNVDEVSTILVMSRCGELMEDSCLRKRIIEEQITDCTDDQFQNVAANFIHLIVQAFHSYTGNDIFALNDLIDFKWPKYVSRITKENIFEPLALYKSAIKLFLSTDDNLSENGQGESAITTNRDDLENSQTYDLSIISKYLLIASYICSYLEPRYDASIFSRKTRIIQGRAAYGRRKKKEVNPRYLQPSLFAIERLLAIFQAIFPIQGKAESGSLSALREESLMKANIEVFQNLSELHTLKLIATTMNKNIDYLSPKVRWKVNVPWEIIKEISESVHFNISDYFSDIHE
binding result (Mcm2): binds | binding result (Orc4): binds | binding result (Mcm6): binds | binding result (Orc3): binds

B3
binding result (Orc2): binds
